Results from publication doi:10.1101/2021.08.24.457465.
Where two headings read alike, the source gives them in different places.

Legend:
ToPif1 (wild type) [1] = target: T1, ToPif1 (wild type) (Thermus oshimai, UniProt K7RJ88 64-507); assay: fluorescence anisotropy
T1 sequence: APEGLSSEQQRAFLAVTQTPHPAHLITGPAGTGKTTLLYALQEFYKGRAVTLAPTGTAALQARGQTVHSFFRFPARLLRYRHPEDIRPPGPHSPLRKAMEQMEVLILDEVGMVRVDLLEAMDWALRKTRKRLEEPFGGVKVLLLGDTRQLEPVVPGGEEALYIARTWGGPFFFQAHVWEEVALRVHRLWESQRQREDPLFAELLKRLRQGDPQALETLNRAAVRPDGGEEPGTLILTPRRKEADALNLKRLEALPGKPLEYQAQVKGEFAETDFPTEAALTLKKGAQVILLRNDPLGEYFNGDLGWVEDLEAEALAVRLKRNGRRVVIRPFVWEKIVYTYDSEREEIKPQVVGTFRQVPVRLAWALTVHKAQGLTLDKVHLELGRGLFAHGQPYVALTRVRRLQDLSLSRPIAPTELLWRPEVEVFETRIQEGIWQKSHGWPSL

ToPif1 (wild type) [2] = target: T1, ToPif1 (wild type); assay: fluorescence anisotropy; remark: listed apart in the source
ToPif1 (wild type) [3] = target: T1, ToPif1 (wild type); assay: fluorescence anisotropy; remark: listed apart in the source
ToPif1 (wild type) [4] = target: T1, ToPif1 (wild type); assay: fluorescence anisotropy; remark: listed apart in the source
[5] = target: T2, ToPif1 (wild type), crystal (Thermus oshimai, UniProt K7RJ88 64-507); assay: X-ray crystallography
T2 sequence: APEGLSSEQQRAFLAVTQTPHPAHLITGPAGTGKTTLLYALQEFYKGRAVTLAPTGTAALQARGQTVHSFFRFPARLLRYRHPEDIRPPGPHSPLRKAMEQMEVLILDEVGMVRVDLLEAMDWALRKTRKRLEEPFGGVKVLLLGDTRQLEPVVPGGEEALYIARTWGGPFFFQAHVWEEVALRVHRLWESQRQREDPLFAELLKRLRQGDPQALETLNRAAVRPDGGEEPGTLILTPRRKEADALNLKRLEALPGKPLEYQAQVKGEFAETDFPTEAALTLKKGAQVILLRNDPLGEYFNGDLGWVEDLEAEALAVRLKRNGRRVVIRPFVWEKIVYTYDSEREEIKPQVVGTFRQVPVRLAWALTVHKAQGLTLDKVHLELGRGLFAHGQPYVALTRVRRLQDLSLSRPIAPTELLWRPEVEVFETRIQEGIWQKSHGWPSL

B1: G4Tel (structured_DNA)
DNA: GGGTTAGGGTTAGGGTTAGGG
Which Kd (ToPif1 (wild type) [1]) does the source give for B1 here?
Its Kd is about 29.6 nM.

B2: G4CEB (structured_DNA)
DNA: AGGGTGGGTGGGTGGG
B2 was tested. Which Kd (ToPif1 (wild type) [1]) did it give?
Its Kd is about 23.3 nM.

What about the Kd (ToPif1 (wild type) [2]) of the same binder?
Its Kd is 30.3 ± 1.17 nM.

What about the Kd (ToPif1 (wild type) [3]) of the same binder?
The Kd was 30.9 ± 2.32 nM.

B3: T12 (ssDNA)
DNA: TTTTTTTTTTTT
For B3, which Kd (ToPif1 (wild type) [1]) is on record?
The Kd was about 29.1 nM.

What about the Kd (ToPif1 (wild type) [2]) of the same binder?
Its Kd is 29.1 ± 0.53 nM.

And the Kd (ToPif1 (wild type) [4])?
Its Kd is 26.5 ± 0.71 nM.

B4: G4T6/T8 (structured_DNA)
DNA: TTTTTTGGGTGGGTGGGTGGGTTTTTTTT
Does B4 bind [5]?
Result: binds
